According to paper PMC5379950:

Molecular target: microtubules (MTs) assembled with taxol in M-phase Xenopus egg extract (Xenopus laevis (endogenous in egg extract))
Assay: co-sedimentation

- fold increase in MT binding (against xINCENP): 2 fold
Substance: GFP-xINCENP 7A (from UniProt O13024 1-873) (natural protein)
